These are literature values, as cited in paper PMC12083247.

The target of one data set is S100A10 (Homo sapiens) (UniProt P60903).
The next data set concerns the target calpain (Homo sapiens) (UniProt P07384).
Chain of UniProt P07384 (P07384 2-714): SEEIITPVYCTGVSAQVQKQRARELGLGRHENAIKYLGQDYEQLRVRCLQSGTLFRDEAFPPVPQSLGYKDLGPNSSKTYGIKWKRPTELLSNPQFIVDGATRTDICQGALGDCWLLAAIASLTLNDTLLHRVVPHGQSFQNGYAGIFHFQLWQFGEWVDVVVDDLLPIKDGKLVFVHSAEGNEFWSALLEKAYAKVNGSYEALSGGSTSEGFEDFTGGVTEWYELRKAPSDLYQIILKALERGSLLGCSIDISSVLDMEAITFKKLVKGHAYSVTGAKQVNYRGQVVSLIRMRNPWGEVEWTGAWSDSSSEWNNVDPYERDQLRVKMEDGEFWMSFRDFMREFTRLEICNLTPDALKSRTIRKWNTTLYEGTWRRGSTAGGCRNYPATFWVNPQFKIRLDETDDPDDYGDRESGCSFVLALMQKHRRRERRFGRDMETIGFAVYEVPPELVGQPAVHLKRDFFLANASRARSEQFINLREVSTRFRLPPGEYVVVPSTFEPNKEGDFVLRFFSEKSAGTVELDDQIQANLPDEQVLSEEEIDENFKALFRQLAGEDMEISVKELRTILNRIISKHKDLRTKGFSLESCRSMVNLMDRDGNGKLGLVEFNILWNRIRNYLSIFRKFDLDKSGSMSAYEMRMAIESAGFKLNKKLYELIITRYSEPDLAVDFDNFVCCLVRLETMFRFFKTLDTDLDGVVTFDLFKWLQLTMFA

Chain of UniProt P60903 (P60903 whole entry): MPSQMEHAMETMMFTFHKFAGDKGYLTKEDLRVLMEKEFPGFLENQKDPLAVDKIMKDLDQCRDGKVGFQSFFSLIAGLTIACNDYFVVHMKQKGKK

Consider “annexin A2 N-terminal 10-12 residues (from UniProt P07355)”, for which the Kd with S100A10 (Homo sapiens) is 13 nM.

Consider “calpastatin domain I (from UniProt P20810)”, for which the Ki with calpain (Homo sapiens) is 15 nM.
